Source: the RNAGym collection of RNA variant scans (doi:10.1073/pnas.2313332121)

B1: TPR t1 (parent)
chain: GACCAAUCUGCCCUCAGAGCUCGAGAACAUCUUCGGAUGCAGAGGAGGCAGGCUUCGGUGGCGCGAUAGCGCCAACGUCCUCAACCUCCAAUGCAUCCCACCACAUGAUGAUGCCUGAAGAGCCUUGGUUUUUUG

Variants of: B1
Experiment: polymerase ribozyme fitness, log enrichment relative to wild type (log ratio); higher = more active; in vitro selection for triplet polymerase activity
How it was run: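 Fitness is a logarithmic measure of how a genotype enriched relative to the wild type, with replicate averages weighted by inverse variance. The logarithm uses base 2, and enrichment came from Illumina sequencing of input and output libraries. Those libraries were PCR-built, transcribed mutants of each subunit of a heterodimeric triplet polymerase ribozyme, passed through one triplicate in vitro selection round that included frozen incubation at −7 °C, gel excision of extended constructs and streptavidin-bead capture. Genotypes were kept only if they had ≥10 input reads and ≥1 read per output.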

First: G44C G63A A121G
Second: A37U G63C A68U U78A U106A
The “polymerase ribozyme fitness (log ratio)” value of the first is higher: 0.865 for the first, -5.67 for the second.

First: U33G C104U C123G
Second: U59C C72U G117A
The “polymerase ribozyme fitness (log ratio)” value of the first is lower: -4.29 for the first, -1.45 for the second.

Compared with G39C C115U G120C, A24G A84U is lower in “polymerase ribozyme fitness (log ratio)” value: -1.04 for the first, -1.7 for the second.

First: A2C A5G U7C C13A G48U A50U U92C C97U C123U
Second: C76U C123G
The “polymerase ribozyme fitness (log ratio)” value of the first is lower: -4.24 for the first, 0.558 for the second.

First: U14G G42U G45C C64U C101U C123A G135U
Second: C40U G44U C49U C53A A84C C86G G113C U125C
The “polymerase ribozyme fitness (log ratio)” value of the first is lower: -4.44 for the first, -3.99 for the second.

Going from U7A C79G C88G U112A to G117C G120U U131G, the “polymerase ribozyme fitness (log ratio)” value falls from -1.87 to -4.67.

Going from C12U A50C C64U A66G U81C to C8G C56G G63C U126C, the “polymerase ribozyme fitness (log ratio)” value rises from -4.8 to -3.33.

First: G39C U54G C70A
Second: C13U C124U
The “polymerase ribozyme fitness (log ratio)” value of the first is lower: -3.74 for the first, 1.96 for the second.

Compared with C28G C72A, G69A C85U is lower in “polymerase ribozyme fitness (log ratio)” value: -3.15 for the first, -3.69 for the second.

Compared with U109G A119G G135C, C72A G113U G120A U132A is higher in “polymerase ribozyme fitness (log ratio)” value: -3.19 for the first, -2.87 for the second.

First: G60A C88U G127A
Second: C22A G61A
The “polymerase ribozyme fitness (log ratio)” value of the first is higher: -1.7 for the first, -4.54 for the second.

Going from C70U G117A to C49U G117C, the “polymerase ribozyme fitness (log ratio)” value falls from -1.99 to -3.03.

First: C12U G63A C124G G127U
Second: G48U A50G G58C G117U G122A
The “polymerase ribozyme fitness (log ratio)” value of the first is higher: 1.79 for the first, -4.46 for the second.

Compared with C8A G65C C115A C123G, A90U U125G is higher in “polymerase ribozyme fitness (log ratio)” value: -4.88 for the first, -1.11 for the second.

First: G48U C62G
Second: A43G C80A C115G
The “polymerase ribozyme fitness (log ratio)” value of the first is higher: -3.39 for the first, -7.29 for the second.

First: C11G G39U C49G C64U G117C
Second: A5G C13U C98U G128U
The “polymerase ribozyme fitness (log ratio)” value of the first is lower: -4.26 for the first, -3.14 for the second.

First: A37G U55C C56A C88A
Second: C11U U21C G63A C82U
The “polymerase ribozyme fitness (log ratio)” value of the first is lower: -4.55 for the first, -1.23 for the second.

A41U G77A U116C U129C and A27U C56G are within 0.2 log units of each other in “polymerase ribozyme fitness (log ratio)” value: -3.98 for the first, -4.07 for the second.

Compared with G44A A46U C85U C86G, U54A G113A is higher in “polymerase ribozyme fitness (log ratio)” value: -4.71 for the first, -1.58 for the second.

Going from A66U G128A to G60A C101U, the “polymerase ribozyme fitness (log ratio)” value rises from -3.15 to -0.265.

First: C12A U32C G107A G120A
Second: G52A G135U
The “polymerase ribozyme fitness (log ratio)” value of the first is lower: -3.32 for the first, -1.86 for the second.

Compared with C11G G63C A105U C123G, C11G G61U U87G is higher in “polymerase ribozyme fitness (log ratio)” value: -2.11 for the first, 0.243 for the second.

Compared with U54A C89G, C53A G60A U92G is lower in “polymerase ribozyme fitness (log ratio)” value: -1.31 for the first, -2.9 for the second.

Compared with C104A C114G G127C, G61C C114A is higher in “polymerase ribozyme fitness (log ratio)” value: -6.1 for the first, -2.18 for the second.

First: G10A C98U C115A
Second: C12A C64U U81A
The “polymerase ribozyme fitness (log ratio)” value of the first is lower: -2.67 for the first, -1.67 for the second.

Compared with C15A C82A, C11U A43U C70U C98U G122U is lower in “polymerase ribozyme fitness (log ratio)” value: -3.12 for the first, -4.47 for the second.

First: U21C U59G C101A
Second: C22G A41C G44C C79G A90C
The “polymerase ribozyme fitness (log ratio)” value of the first is higher: -1.38 for the first, -6.07 for the second.

Compared with A2C G117A, C8G C20G G63A C124G is lower in “polymerase ribozyme fitness (log ratio)” value: -3 for the first, -4.75 for the second.

First: C12U C56A G69A
Second: C4A G36U C70U
The “polymerase ribozyme fitness (log ratio)” value of the first is higher: -2.89 for the first, -3.69 for the second.

Going from A29U C56G A66U to C3U U96A, the “polymerase ribozyme fitness (log ratio)” value rises from -3 to -1.12.

First: G42U C101U
Second: C3A C8A C53G C101A
The “polymerase ribozyme fitness (log ratio)” value of the first is higher: -1.21 for the first, -1.64 for the second.

First: U21A G45A G58A G60U A100U C101G
Second: G39A C49A C98A U112C
The “polymerase ribozyme fitness (log ratio)” value of the first is higher: -2.68 for the first, -3.94 for the second.

Going from C22G C53U C85U U112A to A91C C123U, the “polymerase ribozyme fitness (log ratio)” value rises from -3.51 to -0.37.

Going from A18U U116C G117A to G69A C89U C123G, the “polymerase ribozyme fitness (log ratio)” value rises from -4.83 to -2.85.

Compared with C8G A50G U106G G120A, C11A C70U C76A is lower in “polymerase ribozyme fitness (log ratio)” value: 1.23 for the first, -3.78 for the second.

Going from C20G A118U to G77A U109A, the “polymerase ribozyme fitness (log ratio)” value falls from -3.53 to -5.95.

First: U55C G61A C104A
Second: C53G C62U C72A C124U
The “polymerase ribozyme fitness (log ratio)” value of the first is lower: -1.51 for the first, 0.806 for the second.

First: A6U C97G
Second: G48C C115A
The “polymerase ribozyme fitness (log ratio)” value of the first is lower: -3.24 for the first, -1.84 for the second.

Compared with A2C A84G C99U, A2U C104U is higher in “polymerase ribozyme fitness (log ratio)” value: -6.59 for the first, -1.41 for the second.

Going from U9G G71U C88A C115A to G48A G117U, the “polymerase ribozyme fitness (log ratio)” value rises from -2.67 to -2.2.

Compared with C22U C53G, G63U G128U is higher in “polymerase ribozyme fitness (log ratio)” value: -4.85 for the first, -2.6 for the second.

First: G10C G48C C102U
Second: G44A C49G U55G C85U U106G G107C C115G
The “polymerase ribozyme fitness (log ratio)” value of the first is higher: -2.77 for the first, -6.1 for the second.
